Paper PMC10872493
“And” between values parts separate entries of the source, which are not always exact repeats. Equal entries are not always repeated.

Assays:
[1] = molecular target: CP α1S9C β2S161C, labeled with donor and acceptor dyes (single-molecule FRET construct) (mouse) (UniProt Q5RKN9); experiment: single-molecule FRET titration
[2] = molecular target: CP α1N44C β2E84C, labeled with donor and acceptor dyes (single-molecule FRET construct) (mouse) (UniProt Q5RKN9); experiment: single-molecule FRET titration

Row | Substance | Kd [1] | Kd [2]
1 | WASHCAP CPI-motif peptide | 1.4 nM | 
2 | CKIP-1 CPI-motif peptide |  | 10 nM and 11 nM
